Experimental findings from patent US20040086848A1 (University of Texas, published 2004) are described below.

Data set [1] deals with the molecule itself. The experiment in a line: gel filtration chromatography.
Data set [2] concerns the target T1, endogenous RANK of RAW264.7 cells (mouse, UniProt O35305 31-625).
T1 construct: whole, on cells; Immunoprecipitated from cell lysates with anti-RANK; The species follows from the mouse cell line
T1 sequence (looked up): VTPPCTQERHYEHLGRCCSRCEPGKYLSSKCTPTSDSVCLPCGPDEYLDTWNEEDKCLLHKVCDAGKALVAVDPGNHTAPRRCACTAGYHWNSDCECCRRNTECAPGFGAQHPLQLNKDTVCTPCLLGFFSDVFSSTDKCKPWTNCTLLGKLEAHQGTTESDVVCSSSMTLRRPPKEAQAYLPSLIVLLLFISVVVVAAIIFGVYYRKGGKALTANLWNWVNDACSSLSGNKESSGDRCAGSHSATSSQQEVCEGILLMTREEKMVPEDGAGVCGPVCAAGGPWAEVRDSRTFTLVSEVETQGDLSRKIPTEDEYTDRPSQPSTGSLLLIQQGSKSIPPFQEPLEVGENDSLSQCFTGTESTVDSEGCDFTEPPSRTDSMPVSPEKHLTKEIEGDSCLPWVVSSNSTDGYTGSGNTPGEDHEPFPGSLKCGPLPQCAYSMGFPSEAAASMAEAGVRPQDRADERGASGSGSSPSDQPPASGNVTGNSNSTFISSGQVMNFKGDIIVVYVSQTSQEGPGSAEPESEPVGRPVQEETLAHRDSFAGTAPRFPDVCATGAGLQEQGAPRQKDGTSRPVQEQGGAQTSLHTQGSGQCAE
The experiment in a line: interaction with endogenous RANK in RAW cells (data not shown).

Substitutions are numbered along the chain they refer to. Names may count otherwise.

B1: RAIN mutant K90/91A (from pCMV3×FLAG-hRAIN, stably expressed in RAW cells) (other, human, UniProt Q96GX9 1-242, looked up)
chain: MSGCDAREGDCCSRRCGAQDKEHPRYLIPELCKQFYHLGWVTGTGGGISLKHGDEIYIAPSGVQKERIQPEDMFVCDINEKDISGPSPSAALKKSQCTPLFMNAYTMRGAGAVIHTHSKAAVMATLLFPGREFKITHQEMIKGIKKCTSGGYYRYDDMLVVPIIENTPEEKDLKDRMAHAMNEYPDSCAVLVRRHGVYVWGETWEKAKTMCECYDYLFDIAVSMKKVGLDPSQLPVGENGIV
notes: range 1-242; not shown: 3×FLAG tag of pCMV3×FLAG-14 at the C-terminus
For B1, the binding result in data set [1] and in data set [2] was “binds” in each case.

B2: RAIN mutant R194A (from pCMV3×FLAG-hRAIN, stably expressed in RAW cells) (other, human, UniProt Q96GX9 1-242, looked up)
chain: B1 chain with A90K, A91K, R194A
notes: as for B1
For B2, the binding result in data set [1] and in data set [2] was “binds” throughout.
